According to US20130303441A1 (YEDA RESEARCH AND DEVELOPMENT, published 2013):
Square brackets hold non-standard residues; d marks the D form. Ends that are not written are not given here. pS = N[C@@H](COP(=O)(O)O)C(=O)O

Target: wild-type (WT) GSK-3β (human, UniProt P49841 1-420, limits assumed)
Experiment: cell-based or functional assay

Sequence of wild-type (WT) GSK-3β (P49841 other isoform, or with tags, fused parts or gaps limits assumed): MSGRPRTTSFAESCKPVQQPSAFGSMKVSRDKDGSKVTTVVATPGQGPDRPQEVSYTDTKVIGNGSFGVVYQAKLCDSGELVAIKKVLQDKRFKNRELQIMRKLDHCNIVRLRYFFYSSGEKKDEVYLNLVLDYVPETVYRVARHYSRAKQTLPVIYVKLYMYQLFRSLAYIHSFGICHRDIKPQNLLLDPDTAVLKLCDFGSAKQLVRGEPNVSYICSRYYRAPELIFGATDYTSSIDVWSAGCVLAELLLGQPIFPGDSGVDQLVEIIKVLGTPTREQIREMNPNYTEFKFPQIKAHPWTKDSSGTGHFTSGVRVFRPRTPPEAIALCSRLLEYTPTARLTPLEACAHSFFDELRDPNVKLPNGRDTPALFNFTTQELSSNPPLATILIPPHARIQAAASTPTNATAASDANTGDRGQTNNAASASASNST

KEAPPAPPQ[pS]PF [L803F, Lys-Glu-Ala-Pro-Pro-Ala-Pro-Pro-Gln-phosphorylated Ser-Pro-Phe]
IC50, in vitro kinase assay: ~150 µM
in vitro kinase assays with GSK-3β in the presence of L803 or L803F (200 µM each); inhibition relative to L803: ~50 % relatively to L803
